According to the supplement of paper PMC10567573:

B1: ZMYND11 (parent)
chain: YCSIKCQQEHWHAEHKRTCRRKR

Variants of: B1
Assay: protein stability index of a GFP-peptide fusion (GPS, HEK-293T) (PSI 1-6); higher = more stable
Conditions: c terminus: native
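Also: lentivirally expressed fusions sorted by FACS into six bins by GFP to DsRed ratio, PSI derived from sequencing read proportions per bin multiplied by bin number.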

Row | Variant | protein stability index
1 | YCSIKCQQEHWHAEHKRACRRKR [T18A] | 2.36
2 | YCSIKCQQEHWHAEHKRECRRKR [T18E] | 2.56
3 | YCSIKCQQEHWHAEHKRDCRRKR [T18D] | 2.95
4 | YCSIKCQQEHWHAEHKRCCRRKR [T18C] | 2.85
5 | YCSIKCQQEHWHHEHKRTCRRKR [A13H] | 3.55
6 | YCSIKCQQEHWHMEHKRTCRRKR [A13M] | 2.86
7 | YCSIKCQQEHWHPEHKRTCRRKR [A13P] | 1.9
8 | YCSIKCQQEHWHNEHKRTCRRKR [A13N] | 2.78
9 | YCSIKCQQEHWHTEHKRTCRRKR [A13T] | 1.98
10 | YCSIKCQQEHWHKEHKRTCRRKR [A13K] | 2.65
11 | YCSIKCQQEHWHDEHKRTCRRKR [A13D] | 3.16
12 | YCSIKCQQEHWHVEHKRTCRRKR [A13V] | 2.89
13 | YCSIKCQQEHWHEEHKRTCRRKR [A13E] | 2.16
14 | YCSIKCQQEHWHGEHKRTCRRKR [A13G] | 2.62
15 | YCSIKCQQEHWHYEHKRTCRRKR [A13Y] | 2.1
16 | YCSIKCQQEHWHCEHKRTCRRKR [A13C] | 2.15
17 | YCSIKCQQEHWHFEHKRTCRRKR [A13F] | 1.83
18 | YCSIKCQQEHWHLEHKRTCRRKR [A13L] | 1.61
19 | YCSIKCQQEHWHREHKRTCRRKR [A13R] | 2.49
20 | YCSIKCQQEHWHQEHKRTCRRKR [A13Q] | 2.18
21 | YCSIKCQQEHWHIEHKRTCRRKR [A13I] | 2.58
22 | YCSIKCQQEHWHWEHKRTCRRKR [A13W] | 1.32
23 | YCSIKCQSEHWHAEHKRTCRRKR [Q8S] | 2.51
24 | YCSIKCQNEHWHAEHKRTCRRKR [Q8N] | 2.55
25 | YCSIKCQYEHWHAEHKRTCRRKR [Q8Y] | 2.08

Row | Variant | protein stability index
26 | YCSIKCQREHWHAEHKRTCRRKR [Q8R] | 2.2
27 | YCSIKCQVEHWHAEHKRTCRRKR [Q8V] | 1.78
28 | YCSIKCQPEHWHAEHKRTCRRKR [Q8P] | 2.46
29 | YCSIKCQDEHWHAEHKRTCRRKR [Q8D] | 2.7
30 | YCSIKCQLEHWHAEHKRTCRRKR [Q8L] | 1.72
31 | YCSIKCQAEHWHAEHKRTCRRKR [Q8A] | 2.33
32 | YCSIKCQHEHWHAEHKRTCRRKR [Q8H] | 2.21
33 | YCSIKCQEEHWHAEHKRTCRRKR [Q8E] | 2.34
34 | YCSIKCQFEHWHAEHKRTCRRKR [Q8F] | 2.84
35 | YCSIKCQGEHWHAEHKRTCRRKR [Q8G] | 2.47
36 | YCSIKCQCEHWHAEHKRTCRRKR [Q8C] | 2.51
37 | YCSIKCQMEHWHAEHKRTCRRKR [Q8M] | 2.48
38 | YCSIKCQIEHWHAEHKRTCRRKR [Q8I] | 1.49
39 | YCSIKCQWEHWHAEHKRTCRRKR [Q8W] | 1.85
40 | YCSIKCQKEHWHAEHKRTCRRKR [Q8K] | 2.77
41 | YCSIKCQTEHWHAEHKRTCRRKR [Q8T] | 1.86
42 | YCSIKCQQEGWHAEHKRTCRRKR [H10G] | 2.81
43 | YCSIKCQQELWHAEHKRTCRRKR [H10L] | 1.65
44 | YCSIKCQQEMWHAEHKRTCRRKR [H10M] | 1.4
45 | YCSIKCQQEPWHAEHKRTCRRKR [H10P] | 2.1
46 | YCSIKCQQEAWHAEHKRTCRRKR [H10A] | 1.95
47 | YCSIKCQQEIWHAEHKRTCRRKR [H10I] | 1.92
48 | YCSIKCQQESWHAEHKRTCRRKR [H10S] | 2.36
49 | YCSIKCQQEEWHAEHKRTCRRKR [H10E] | 2.18
50 | YCSIKCQQECWHAEHKRTCRRKR [H10C] | 1.54

Row | Variant | protein stability index
51 | YCSIKCQQEDWHAEHKRTCRRKR [H10D] | 1.96
52 | YCSIKCQQEKWHAEHKRTCRRKR [H10K] | 2.12
53 | YCSIKCQQERWHAEHKRTCRRKR [H10R] | 3.33
54 | YCSIKCQQEQWHAEHKRTCRRKR [H10Q] | 2.45
55 | YCSIKCQQEVWHAEHKRTCRRKR [H10V] | 1.11
56 | YCSIKCQQEYWHAEHKRTCRRKR [H10Y] | 1.73
57 | YCSIKCQQENWHAEHKRTCRRKR [H10N] | 3.26
58 | YCSIKCQQETWHAEHKRTCRRKR [H10T] | 2.07
59 | YCSIKCQQEHTHAEHKRTCRRKR [W11T] | 4.7
60 | YCSIKCQQEHAHAEHKRTCRRKR [W11A] | 2.98
61 | YCSIKCQQEHSHAEHKRTCRRKR [W11S] | 3.2
62 | YCSIKCQQEHEHAEHKRTCRRKR [W11E] | 4.32
63 | YCSIKCQQEHGHAEHKRTCRRKR [W11G] | 4.05
64 | YCSIKCQQEHMHAEHKRTCRRKR [W11M] | 3.58
65 | YCSIKCQQEHDHAEHKRTCRRKR [W11D] | 4.43
66 | YCSIKCQQEHYHAEHKRTCRRKR [W11Y] | 3.32
67 | YCSIKCQQEHFHAEHKRTCRRKR [W11F] | 2.76
68 | YCSIKCQQEHPHAEHKRTCRRKR [W11P] | 4.14
69 | YCSIKCQQEHQHAEHKRTCRRKR [W11Q] | 4.24
70 | YCSIKCQQEHKHAEHKRTCRRKR [W11K] | 3.52
71 | YCSIKCQQEHRHAEHKRTCRRKR [W11R] | 2.96
72 | YCSIKCQQEHCHAEHKRTCRRKR [W11C] | 3.41
73 | YCSIKCQQEHNHAEHKRTCRRKR [W11N] | 3.98
74 | YCSIKCQQEHHHAEHKRTCRRKR [W11H] | 3.45
75 | YCSIKCQQEHVHAEHKRTCRRKR [W11V] | 3.48

Row | Variant | protein stability index
76 | YCSIKCQQEHLHAEHKRTCRRKR [W11L] | 2.97
77 | YCSIKCQQEHIHAEHKRTCRRKR [W11I] | 3.03
78 | YCSIKCQQEHWHAEHNRTCRRKR [K16N] | 2.11
79 | YCSIKCQQEHWHAEHRRTCRRKR [K16R] | 1.76
80 | YCSIKCQQEHWHAEHHRTCRRKR [K16H] | 2.84
81 | YCSIKCQQEHWHAEHCRTCRRKR [K16C] | 2.74
82 | YCSIKCQQEHWHAEHMRTCRRKR [K16M] | 2.16
83 | YCSIKCQQEHWHAEHWRTCRRKR [K16W] | 1.74
84 | YCSIKCQQEHWHAEHYRTCRRKR [K16Y] | 1.62
85 | YCSIKCQQEHWHAEHERTCRRKR [K16E] | 2.46
86 | YCSIKCQQEHWHAEHTRTCRRKR [K16T] | 2.71
87 | YCSIKCQQEHWHAEHDRTCRRKR [K16D] | 2.43
88 | YCSIKCQQEHWHAEHSRTCRRKR [K16S] | 2.56
89 | YCSIKCQQEHWHAEHLRTCRRKR [K16L] | 2.42
90 | YCSIKCQQEHWHAEHGRTCRRKR [K16G] | 2.83
91 | YCSIKCQQEHWHAEHIRTCRRKR [K16I] | 2.18
92 | YCSIKCQQEHWHAEHQRTCRRKR [K16Q] | 2.34
93 | YCSIKCQQEHWHAEHVRTCRRKR [K16V] | 2.39
94 | YCSIKCQQEHWHAEHFRTCRRKR [K16F] | 1.95
95 | YCSIKCQQEHWHAEHARTCRRKR [K16A] | 2.53
96 | YCSIKCQQEHWHAAHKRTCRRKR [E14A] | 2.94
97 | YCSIKCQQEHWHACHKRTCRRKR [E14C] | 2.54
